According to article PMC5024086, “Fine-tuning of amino sugar homeostasis by EIIA^Ntr in Salmonella Typhimurium” (Scientific Reports, 2016):

Columns and labels:
[1] = biological target: GlmS in solution (SEC-MALS) (Salmonella Typhimurium) (UniProt Q8ZKX1); assay: SEC-MALS; Superdex 200 10/300 GL, 20 mM Tris-HCl pH 8.0, 300 mM NaCl, 2 mg protein injected, 0.5 ml/min; proteins alone or in combination
[2] = biological target: the molecule itself; assay: as above

| Molecule | stoichiometry N (EIIA^Ntr per GlmS chain (1:2)) [1] | stoichiometry N [2] |
| --- | --- | --- |
| EIIA^Ntr in solution (SEC-MALS) (natural protein) | 0.5 | – |
| GlmS in solution (SEC-MALS) (enzyme, Salmonella Typhimurium, UniProt Q8ZKX1 1-609, looked up, D-glucosamine-6-phosphate synthase (GlmS), Salmonella Typhimurium; 128 kDa dimer by SEC-MALS; it may be the same as m7; also called GlmS dimer) MCGIVGAIAQRDVAEILLEGLRRLEYRGYDSAGLAVVDAEGHMTRLRRLGKVQMLAQAAEEHPLHGGTGIAHTRWATHGEPSEANAHPHVSEHIVVVHNGIIENHEPLREALKARGYTFVSETDTEVIAHLVNWELKQGGTLREAVLRAIPQLRGAYGTVIMDTRHPDTLLAARSGSPLVIGLGMGENFIASDQLALLPVTRRFIFLEEGDIAEITRRSVNIFDNTGAEVKRQDIESNLQYDAGDKGIYRHYMQKEIYEQPNAIKNTLTGRISHGQVDLSELGPNADELLSKVEHIQILACGTSYNSGMVSRYWFESLAGIPCDVEIASEFRYRKSAVRRNSLMITLSQSGETADTLAGLRLSKELGYLGSLAICNVPGSSLVRESDLALMTNAGTEIGVASTKAFTTQLTVLLMLVAKLSRLKGLDASIEHDIVHGLQALPSRIEQMLSQDKRIELLAEDFSDKHHALFLGRGDQYPIALEGALKLKEISYIHAEAYAAGELKHGPLALIDADMPVIVVAPNNELLEKLKSNIEEVRARGGQLYVFADQDAGFVSNDNMHIIEMPHVEEVIAPIFYTVPLQLLAYHVALIKGTDVDQPRNLAKSVTVE | – | 2 |
